Reference: the RNAGym collection of RNA variant scans (doi:10.1021/acssynbio.7b00057)

B1: Pistol ribozyme (parent)
chain: GGGUCGUUGUUCCAUAAUCGCGUGGAUAUGGCACGCAAGUUUCUACCGGGCACCGUAAAUGUCCGACUGGAGCCGUUCGGGCGGCUAUAAACAGACCUCAGGCCCGAAGCGUGGCGGCACCUGCCGCCGGUGGUAAAAAAGAUCGGAAGAGCACACGUCU

Variants of: B1
Assay: aptazyme ON/OFF ratio, guanine; higher = stronger switching; co-transcriptional cleavage with and without guanine

Variant | aptazyme ON/OFF ratio
U7G U8G U10G C12U C13A | 1
U7G U8G U10G C12U C13G | 1.04
U7G U8G U10G C12U C13U | 1.32
U7G U8G G9U U10G U11C C12G C13U | 1.14
U7G U8G G9U U10G U11C C12G C13A | 1.1
U7G U8G G9U U10G U11C C12G C13G | 1.05
U7G U8G U10A U11C C12A C13U | 1.47
U7G U8G U10A U11C C12A C13G | 1.23
U7G U8G U10A U11C C12A C13A | 1.34
U7G U8G U10A U11G C12A C13A | 1.05
U7G U8G U10A U11G C12A C13G | 1.15
U7G U8G U10A U11G C12A C13U | 1.37
U7G U8G U10G C12A | 1.31
U7G U8G U10G C12U | 1.54
U7G U8G U10G C12G | 1.3
U7G U8G G9U U11C C12U | 1.65
U7G U8G G9U U11C C12G | 1.43
U7G U8G G9U U11C C12A | 1.8
U7G U8G G9U U11A C13U | 1.38
U7G U8G G9U U11A C13A | 1.33
U7G U8G G9U U11A C13G | 1.09
U7G U8G U10A U11A C13G | 1.21
U7G U8G U10A U11A C13U | 1.35
U7G U8G U10A U11A C13A | 1.33

Variant | aptazyme ON/OFF ratio
U7G U8G U10C C12U C13U | 1.39
U7G U8G U10C C12U C13A | 1.47
U7G U8G U10C C12U C13G | 1.42
U7G U8G U10G U11A C12U C13U | 1.17
U7G U8G U10G U11A C12U C13A | 1.33
U7G U8G U10G U11A C12U C13G | 1.17
U7G U8G U11A C12U C13U | 1.15
U7G U8G U11A C12U C13G | 1.36
U7G U8G U11A C12U C13A | 1.56
U7G U8G G9U U11A C12G C13A | 1.15
U7G U8G G9U U11A C12G C13U | 1.16
U7G U8G G9U U11A C12G C13G | 1.06
U7G U8G U10A C12A C13G | 1.3
U7G U8G U10A C12A C13U | 1.33
U7G U8G U10A C12A C13A | 1.18
U7G U8G U11G C12U C13G | 1.26
U7G U8G U11G C12U C13U | 1.37
U7G U8G U11G C12U C13A | 1.5
U7G U8G G9U U11G C12G C13A | 1.05
U7G U8G G9U U11G C12G C13U | 1.22
U7G U8G G9U U11G C12G C13G | 1.14
U7G U8G G9U U10G U11C C12G | 1.11
U7G U8G G9U U10G U11C C12U | 1.04
U7G U8G G9U U10G U11C C12A | 1.13

Variant | aptazyme ON/OFF ratio
U7G U8G G9U U10G U11C C12U C13A | 1.06
U7G U8G G9U U10G U11C C12U C13U | 1.03
U7G U8G G9U U10G U11C C12U C13G | 1.19
U7G U8G U10A U11G C13U | 1.33
U7G U8G U10A U11G C13G | 1.18
U7G U8G U10A U11G C13A | 1.18
U7G U8G G9U U11A C12U | 1.54
U7G U8G G9U U11A C12A | 1.43
U7G U8G G9U U11A C12G | 1.29
U7G U8G U10A U11G C12U | 1.38
U7G U8G U10A U11G C12G | 1.2
U7G U8G U10A U11G C12A | 1.16
U7G U8G G9U U10G U11C | 1.1
U7G U8G G9U U10G U11G | 1.81
U7G U8G U10A U11C C12U C13G | 1.25
U7G U8G U10A U11C C12U C13U | 1.5
U7G U8G U10A U11C C12U C13A | 1.42
U7G U8G U10C U11A | 1.74
U7G U8G U10C U11G | 1.56
U7G U8G U10C U11C | 2.2
U7G U8G U10G U11A C12G C13U | 1.47
U7G U8G U10G U11A C12G C13A | 1.28
U7G U8G U10G U11A C12G C13G | 1.44
U7G U8G U10G C13G | 1.47

Variant | aptazyme ON/OFF ratio
U7G U8G U10G C13U | 1.39
U7G U8G U10G C13A | 1.45
U7G U8G U10C U11A C12U | 1.36
U7G U8G U10C U11A C12G | 1.21
U7G U8G U10C U11A C12A | 1.34
U7G U8G U10C C12A C13A | 1.45
U7G U8G U10C C12A C13G | 1.27
U7G U8G U10C C12A C13U | 1.28
U7G U8G G9U U11G C12U C13A | 1.07
U7G U8G G9U U11G C12U C13G | 1.2
U7G U8G G9U U11G C12U C13U | 1.27
U7G U8G G9U U11G C12A C13G | 1.12
U7G U8G G9U U11G C12A C13U | 1.16
U7G U8G G9U U11G C12A C13A | 1.1
U7G U8G U10G U11C C12U | 1.24
U7G U8G U10G U11C C12A | 1.17
U7G U8G U10G U11C C12G | 1.29
U7G U8G U10C U11A C12G C13A | 1.17
U7G U8G U10C U11A C12G C13G | 1.23
U7G U8G U10C U11A C12G C13U | 1.27
U7G U8G G9U U10G U11C C12A C13A | 1.1
U7G U8G G9U U10G U11C C12A C13G | 1.11
U7G U8G G9U U10G U11C C12A C13U | 1.1
U7G U8G U10A U11G | 1.65

Variant | aptazyme ON/OFF ratio
U7G U8G U10A U11C | 1.09
U7G U8G U10A U11A | 2.25
U7G U8G U10A U11A C12G C13U | 1.13
U7G U8G U10A U11A C12G C13A | 1.22
U7G U8G U10A U11A C12G C13G | 1.26
U7G U8G U10G U11C C12G C13U | 1.4
U7G U8G U10G U11C C12G C13G | 1.25
U7G U8G U10G U11C C12G C13A | 1.29
U7G U8G G9U U10G U11A C13G | 1.16
U7G U8G G9U U10G U11A C13A | 1.13
U7G U8G G9U U10G U11A C13U | 1.19
U7G U8G U10C C12G C13G | 1.54
U7G U8G U10C C12G C13U | 1.33
U7G U8G U10C C12G C13A | 1.4
U7G U8G G9U U10G U11A C12U C13U | 1.2
U7G U8G G9U U10G U11A C12U C13G | 1.19
U7G U8G G9U U10G U11A C12U C13A | 1.1
U7G U8G U10G U11G C12U C13U | 1.32
U7G U8G U10G U11G C12U C13A | 1.13
U7G U8G U10G U11G C12U C13G | 1.13
U7G U8G U11C C12G C13G | 1.23
U7G U8G U11C C12G C13U | 1.33
U7G U8G U11C C12G C13A | 1.33
U7G U8G U10G C12G C13A | 1.21

Variant | aptazyme ON/OFF ratio
U7G U8G U10G C12G C13G | 1.32
U7G U8G U10G C12G C13U | 1.26
U7G U8G U10C U11C C13G | 1.07
U7G U8G U10C U11C C13A | 1.07
U7G U8G U10C U11C C13U | 1.12
U7G U8G U10G U11A C12A | 1.18
U7G U8G U10G U11A C12G | 1.43
U7G U8G U10G U11A C12U | 1.36
U7G U8G G9U U11C C12G C13A | 1.14
U7G U8G G9U U11C C12G C13U | 1.43
U7G U8G G9U U11C C12G C13G | 1.17
U7G U8G U10C U11G C13G | 1.21
U7G U8G U10C U11G C13U | 1.47
U7G U8G U10C U11G C13A | 1.26
U7G U8G U10C C13G | 1.17
U7G U8G U10C C13A | 1.33
U7G U8G U10C C13U | 1.81
U7G U8G U10A U11C C13G | 1.25
U7G U8G U10A U11C C13U | 1.08
U7G U8G U10A U11C C13A | 1.27
U7G U8G U10G U11A C13G | 1.18
U7G U8G U10G U11A C13A | 1.21
U7G U8G U10G U11A C13U | 1.24
U7G U8G G9U U11A C12U C13U | 1.23

Variant | aptazyme ON/OFF ratio
U7G U8G G9U U11A C12U C13A | 1.33
U7G U8G G9U U11A C12U C13G | 1.28
U7G U8G U11G | 2.52
U7G U8G U11C | 1.35
U7G U8G U11A | 1.67
U7G U8G G9U U11C C13G | 1.1
U7G U8G G9U U11C C13A | 1.4
U7G U8G G9U U11C C13U | 1.41
U7G U8G G9U U11G C13A | 1.2
U7G U8G G9U U11G C13U | 1.42
U7G U8G G9U U11G C13G | 1.19
U7G U8G G9U U10G U11G C13G | 1.08
U7G U8G G9U U10G U11G C13A | 1.06
U7G U8G G9U U10G U11G C13U | 1.11
U7G U8G G9U U10G U11A C12U | 1.27
U7G U8G G9U U10G U11A C12G | 1.16
U7G U8G U11A C12G | 1.43
U7G U8G U11A C12A | 1.36
U7G U8G U11A C12U | 1.38
U7G U8G G9U U10G U11G C12A C13A | 1.04
U7G U8G G9U U10G U11G C12A C13U | 1.06
U7G U8G G9U U10G U11G C12A C13G | 1.1
U7G U8G U10A C13G | 1.29
